Laboratory results from article PMC10150487, “m^6A readers ECT2/ECT3/ECT4 enhance mRNA stability through direct recruitment of the poly(A) binding proteins in Arabidopsis” (Genome Biology, 2023).

T1: GST-tagged full-length ECT2 (Arabidopsis thaliana, UniProt Q9LJE5 1-667)
T1 construct: also called GST-ECT2; Evolutionarily conserved C-terminal region 2
T1 sequence (looked up): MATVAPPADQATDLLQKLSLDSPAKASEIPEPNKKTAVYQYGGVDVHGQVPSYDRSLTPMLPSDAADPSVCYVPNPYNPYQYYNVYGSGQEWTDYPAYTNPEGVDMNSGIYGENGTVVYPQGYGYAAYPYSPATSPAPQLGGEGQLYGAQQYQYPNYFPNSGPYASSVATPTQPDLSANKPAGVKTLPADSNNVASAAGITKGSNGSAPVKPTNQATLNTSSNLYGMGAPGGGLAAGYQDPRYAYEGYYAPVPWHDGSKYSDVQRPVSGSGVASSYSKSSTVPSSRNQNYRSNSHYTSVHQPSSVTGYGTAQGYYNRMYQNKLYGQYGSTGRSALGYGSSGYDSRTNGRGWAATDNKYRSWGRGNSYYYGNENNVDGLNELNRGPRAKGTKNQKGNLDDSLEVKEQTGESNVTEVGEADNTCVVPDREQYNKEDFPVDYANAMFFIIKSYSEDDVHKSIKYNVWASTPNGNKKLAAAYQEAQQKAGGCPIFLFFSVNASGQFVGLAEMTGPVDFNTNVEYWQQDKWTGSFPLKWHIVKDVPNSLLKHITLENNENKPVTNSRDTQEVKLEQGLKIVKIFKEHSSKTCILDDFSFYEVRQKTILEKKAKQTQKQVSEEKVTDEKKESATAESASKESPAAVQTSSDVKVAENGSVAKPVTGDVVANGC


Experiments:
[1] = target: T1, GST-tagged full-length ECT2; assay: pull-down; GST pull-down: 100 pmol pre-cleared MBP-PAB2 or MBP-PAB4 mixed with 100 pmol GST or GST-ECT2 (full length or fragments) and glutathione magnetic agarose beads, 2 h at 4 °C, IPP buffer (150 mM NaCl, 0.1% NP-40, 10 mM Tris pH 7.4, 0.5 mM DTT); immunoblot with anti-MBP and anti-GST; conditions: both partners purified
[2] = target: T1, GST-tagged full-length ECT2; assay: pull-down; GST pull-down: purified MBP-ECT3 and SUMO-ECT4 incubated with GST-ECT2 or GST alone, GST magnetic beads, immunoblot with anti-GST, anti-MBP and anti-SUMO; conditions: both partners purified

Row | Binder | binding result [1] | binding result [2]
1 | MBP-tagged PAB2 (natural protein, Arabidopsis thaliana, UniProt P42731 1-629, looked up, also called MBP-PAB2; source: Escherichia coli BL-21 Gold, purified (amylose resin)) MAQVQLQGQTPNGSTAAVTSAPATSGGATATQFGNTSLYVGDLDFNVTDSQLFDAFGQMGTVVTVRVCRDLVTRRSLGYGYVNFTNPQDAARAIQELNYIPLYGKPIRVMYSHRDPSVRRSGAGNIFIKNLDESIDHKALHDTFSSFGNIVSCKVAVDSSGQSKGYGFVQYANEESAQKAIEKLNGMLLNDKQVYVGPFLRRQERDSTANKTKFTNVYVKNLAESTTDDDLKNAFGEYGKITSAVVMKDGEGKSKGFGFVNFENADDAARAVESLNGHKFDDKEWYVGRAQKKSERETELRVRYEQNLKEAADKFQSSNLYVKNLDPSISDEKLKEIFSPFGTVTSSKVMRDPNGTSKGSGFVAFATPEEATEAMSQLSGKMIESKPLYVAIAQRKEDRRVRLQAQFSQVRPVAMQPSVGPRMPVYPPGGPGIGQQMFYGQAPPAMIPPQPGYGYQQQLVPGMRPGGGPVPSFFMPMVQPQQQRPGGGRRPGGIQHSQQQNPMMQQQMHPRGRMFRYPQGRGGSGDVPPYDMGNNMPLTIGALASNLSNATPEQQRTMLGEVLYPLVEQVEAESAAKVTGMLLEMDQTEVLHLLESPEALKAKVAEAMDVLRSVAAGGATEQLASLNLS | binds | –
2 | maltose-binding protein (MBP)-tagged ECT3 (natural protein, Arabidopsis thaliana, UniProt F4K1Z0 1-495, looked up, also called MBP-ECT3; source: Escherichia coli, purified recombinant protein) MANPDHVSDVLHNLSIDPTTKALAPDSETKLQGAYGGNGNDFLLNDELVEATKIGKPSLLSKDGGVTKDKGSNLKKLGYQSAAYNAKGSYGKGAYAYGYYPPAYQYPRHGYTGSYASGKTNLQYQYLTQQGRSAGNGQSYGGYMDNIYSNYGMCGPYTNGYGYGSYGYDSWKYMPNWYAVNNTYKPRNGYHGYGKENIEGLNEMNRGPRAKGFNSQDGSKVMAVSLKEQRVTETEKLSEDVSLLDPKDYNKIDFPETYTEAKFYVIKSYSEDDIHKSIKYSVWSSTPNGNKKLDASYNEAKQKSDGCPVFLLFSVNTSGQFVGLAEMVGPVDFNKTVEYWQQDKWIGCFPVKWHFVKDIPNSSLRHITLENNENKPVTNSRDTQEVKLEQGIKVIKIFKDHASKTCILDDFEFYENRQKIIQERKSKHLQIKKQTLVANADKGVMSKINLVKPQESTTASEDAAALGVAAEVTKESKVVKETELPVEKNAVATAC | – | binds
3 | MBP-tagged PAB4 (natural protein, Arabidopsis thaliana, UniProt O22173 1-662, looked up, also called MBP-PAB4; source: Escherichia coli BL-21 Gold, purified (amylose resin)) MAQVQAPSSHSPPPPAVVNDGAATASATPGIGVGGGGDGVTHGALCSLYVGDLDFNVTDSQLYDYFTEVCQVVSVRVCRDAATNTSLGYGYVNYSNTDDAEKAMQKLNYSYLNGKMIRITYSSRDSSARRSGVGNLFVKNLDKSVDNKTLHEAFSGCGTIVSCKVATDHMGQSRGYGFVQFDTEDSAKNAIEKLNGKVLNDKQIFVGPFLRKEERESAADKMKFTNVYVKNLSEATTDDELKTTFGQYGSISSAVVMRDGDGKSRCFGFVNFENPEDAARAVEALNGKKFDDKEWYVGKAQKKSERELELSRRYEQGSSDGGNKFDGLNLYVKNLDDTVTDEKLRELFAEFGTITSCKVMRDPSGTSKGSGFVAFSAASEASRVLNEMNGKMVGGKPLYVALAQRKEERRAKLQAQFSQMRPAFIPGVGPRMPIFTGGAPGLGQQIFYGQGPPPIIPHQPGFGYQPQLVPGMRPAFFGGPMMQPGQQGPRPGGRRSGDGPMRHQHQQPMPYMQPQMMPRGRGYRYPSGGRNMPDGPMPGGMVPVAYDMNVMPYSQPMSAGQLATSLANATPAQQRTLLGESLYPLVDQIESEHAAKVTGMLLEMDQTEVLHLLESPEALNAKVSEALDVLRNVNQPSSQGSEGNKSGSPSDLLASLSINDHL | binds | –
